# Results taken from patent publication US20250206839A1, “METHODS, COMPOSITIONS AND USES FOR SEMA7A MONOCLONAL ANTIBODIES” (THE REGENTS OF THE UNIVERSITY OF COLORADO, A BODY CORPORATE, priority 2022, published 2025).
# “Also recorded” adds a separate entry of the source.
# B1: SmAbH1: mouse monoclonal antibody against SEMA7A generated using the 10-mer immunizing peptide … (SEQ ID NO: 2) (antibody, V domains shown)
# VH: QVKLQESGTVLARPGASVKMSCKASVYSFTSYWMHWVKQRPGQGLEWIGAIYPGNSDTSYNQKFKGKAKLTAVTSASTAYMELSSLTNEDSAVYYCTRGGAPTMITAYYAMDYWGQGTSVTVSS
# VL: DIQMTQTTSSLSASLGDRVTISCRASQDISNYLNWYQQKPDGTVKLLIYYTSRLHSGVPSRFSGSGSGTDYSLTISNLEQEDIATYFCQQGNTLPWTFGGGTKLEIKR
# Assays:
# SEMA7A expressing cells = experiment: Mammosphere formation and cell death in vitro; type: cell-based
# Protocol: In another exemplary method, it was observed that SEMA7A was sufficient to promote stem cell phenotypes, including mammosphere formation, anchorage independent growth and resistance to chemotherapy, which is a property of cancer stem cells. Finally. SEMA7A expressing cells display increased functions and markers of cancer stem cells.
# MCF10A and MCF12A cells were labeled with CellTrace Violet (ThermoFisher: #C34557) for 20 min at 37° C., according to the manufacturer's instructions. A sample of labeled cells was analyzed by flow cytometry to determine labeling efficiency and fluorescent intensity at time of seeding. Single cells were seeded at a density of 4000 cells/well in μltra-low attachment 24-well plates to induce mammosphere formation. Cells were cultured in normal culture media for 7 days and were subsequently counted, dissociated enzymatically in Accutase, (Stem Cell Technologies, Vancouver, Canada: #07922), and analyzed by flow cytometry. See flow cytometry methods for detailed information.
# SSM2 cells = experiment: Cell viability, crystal violet, 48 h; type: cell-based, mouse; conditions: SSM2, 500 nM SmAbH1 vs 8 nM Fulvestrant
# Protocol: (§1) For proliferation assays, cells were plated at 2000 cells per well of a 96-well dish. Four pictures of different regions in each well were taken every four hours for 48 h using an IncuCyte ZOOM (Essen BioScience, Ann Arbor, MI, USA). Percent confluence was determined using the IncuCyte ZOOM software (Essen BioScience). 66cl4 Sema7A DDK cells were plated in a 96-well plate in triplicate at 1,500 cells/well. They sat down over 24 hours and then were treated with 1000 nM IgG control, 10 nM SmAbH1, 100 nM SmAbH1, 200 nM SmAbH1, 500 nM SmAbH1, or 1000 nM SmAbH1. The plate was promptly transferred to the IncuCyte where photos were taken and analyzed every 4 hours for 7 days. For additional treatment studies in MCF7, TC11 and SSM2 cells ([…]) were plated in a 24-well plate in complete media and allowed to sit down over 24 hours. At 24 hours after plating, cells were treated with 500 nM IgG control, 500 nM SmAbH1, 8 nM Fulvestrant or the combination. The plate was incubated at 37 C for 48 hours, then fixed with 10% NBF and stained with crystal violet.
# TC11 cells = experiment: Cell viability, crystal violet, 48 h; type: cell-based, mouse; conditions: TC11, 500 nM SmAbH1 vs 8 nM Fulvestrant
# Protocol: as §1
# 66cl4 Sema7A DDK cells = experiment: IncuCyte percent confluence time course; type: cell-based, mouse
# Protocol: as §1
# [1] = system: human breast cancer MCF7A SEMA7A overexpressing cells; experiment: Immunofluorescence labeling of TAPI-1 treated SEMA7A overexpressing cells; type: cell-based; conditions: antibody 250:1, FITC secondary, cells treated with TAPI-1
# Protocol: In another exemplary method, the ability of anti-SEMA7A monoclonal antibodies to bind and label cells was tested. In an exemplary method, human breast cancer MCF7A SEMA7A overexpressing cells were treated with TAPI-1, a TACE/ADAM17 inhibitor that blocks SEMA7A shedding from the cell surface, and then incubated with an anti-SEMA7A monoclonal antibody (250:1) before visualization with a FITC secondary antibody (1000:1).
# Cells were fixed with 2% PFA or 1:1 acetone-methanol for 30 minutes at 4C, before washing once with PBS and blocking with 1% BSA in PBST for 1 hour at room temperature. After removal of the blocking solution, cells were incubated in primary antibody in 1% BSA in PBST overnight at 4° C. The primary antibody (SmAbH1 (lot 022823) was prepared at a 1:250 concentration by adding 4 μL stock solution to ImL 1% BSA in PBS. After primary removal cells were washed with PBS for 10 min×3 and incubated in secondary antibody in 1% BSA in PBS for 1-2 hours at room temperature (covered from light). The secondary antibody (Donkey anti-Mouse IgG Alexa Fluor 488 (Invitrogen A-21202)) was prepared at 1:1000 concentration by adding 1 μL into ImL 1% BSA in PBS. After removal of secondary antibody cells were washed with PBS for 10 min×3. VECTASHIELD Antifade Mounting Medium with DAPI (Vector Labs H-1200-10) was added and the cells were sealed with a glass coverslip. […]
# pNFκB in MDA231 cells = experiment: Western blot for phosphorylation of NFκB; type: cell-based, human; conditions: MDA231, high SEMA7A
# Protocol: (§2) In another exemplary method, the ability of the anti-SEMA7A monoclonal antibodies to affect cellular processes related to cell survival was tested. In one exemplary method, human triple negative breast cancer cell lines with low (MDA468) or high (MDA231) levels of SEMA7A were treated with SmAbH1 (CUH1) or commercially available monoclonal antibody-based inhibitors of an integrin receptor for SEMA7A (α6β1) and then evaluated using Western blot for phosphorylation of NFκB (pNFκB), a key survival marker.
# pNFκB in MDA468 cells = experiment: Western blot for phosphorylation of NFκB; type: cell-based, human; conditions: MDA468, low SEMA7A
# Protocol: as §2
molecule,measurement,setting,value
B1,cell death,SEMA7A expressing cells,induce cell death
same,mammosphere formation,SEMA7A expressing cells,reduce mammosphere formation
same,cell viability compared to fulvestrant,SSM2 cells,more significantly reduced
same,cell viability compared to fulvestrant,TC11 cells,more significantly reduced
same,viability / percent confluence over time,"66cl4 Sema7A DDK cells; 66cl4, 10-1000 nM SmAbH1, 7 days",decreased viability; also recorded: dose dependency
same,decrease of cellular confluence compared to commercially available SEMA7A directed antibodies,"66cl4 Sema7A DDK cells; 66cl4 DDK and DDK SEMA7A cells, vs SC-374432 and Ab23578",greater than commercially available
same,labeling of cells,[1],labeled the cell lines treated with TAPI-I
same,downstream NFκB activation (pNFκB levels),pNFκB in MDA231 cells,blocked downstream NFκB activation; also recorded: the effect was stronger
same,downstream NFκB activation (pNFκB levels),pNFκB in MDA468 cells,blocked downstream NFκB activation
